{"source": "FireProtDB (doi:10.1021/bi972394l)", "details": "Homo sapiens; pH 7.8; Thermal; DSC; potassium phosphate 2 mM; transition: 2; reversible: Yes; whole UniProt chain shown", "note": "“And” between values parts separate entries of the source, which are not always exact repeats. Equal entries are not always repeated.", "data": [{"protein": "Superoxide dismutase [Mn], mitochondrial wild type, P04179 (protein) MLSRAVCGTSRQLAPVLGYLGSRQKHSLPDLPYDYGALEPHINAQIMQLHHSKHHAAYVNNLNVTEEKYQEALAKGDVTAQIALQPALKFNGGGHINHSIFWTNLSPNGGGEPKGELLEAIKRDFGSFDKFKEKLTAASVGVQGSGWGWLGFNKERGHLQIAACPNQDPLQGTTGLIPLLGIDVWEHAYYLQYKNVRPDYLKAIWNVINWENVTERYMACKK", "values": [{"measurement": "unfolding enthalpy (calorimetric)", "result": "142 kcal/mol and 90.6 kcal/mol"}]}]}
